In patent US9090686B2, “Antibodies for the treatment of HIV” (Pierre Fabre Medicament, priority 2009, dated 2015):
Changes are numbered by the printed parent chain.

Columns and labels:
[1] = molecular target: T1, native form of CXCR4 expressed at the cell surface of monocytes and T lymphocytes (Homo sapiens, UniProt P61073); experiment: FACS binding to peripheral blood mononuclear cells (whole blood); details: CD3 positive and CD14 positive cells, whole blood of healthy donor
T1 construct: the native form of CXCR4 expressed at the cell surface of monocytes and T lymphocytes; endogenous in cells; host or cells: whole blood (buffy coat) of a healthy donor; CD14+ monocytes and CD3+ T cells
T1 sequence (P61073 whole entry): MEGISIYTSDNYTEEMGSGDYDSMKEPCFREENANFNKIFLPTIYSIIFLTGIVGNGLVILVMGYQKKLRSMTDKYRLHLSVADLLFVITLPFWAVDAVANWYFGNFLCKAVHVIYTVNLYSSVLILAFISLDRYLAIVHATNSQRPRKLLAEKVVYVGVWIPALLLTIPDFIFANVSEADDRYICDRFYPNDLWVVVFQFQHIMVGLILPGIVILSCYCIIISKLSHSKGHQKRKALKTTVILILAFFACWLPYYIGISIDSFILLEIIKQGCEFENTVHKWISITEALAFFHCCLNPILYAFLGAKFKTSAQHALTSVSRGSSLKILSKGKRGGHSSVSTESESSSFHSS
Method: Blood was collected as buffy coat from healthy donor. 100 μl of whole blood was incubated with anti-human CXCR4 antibodies (clones 515H7 and 301aE5) at the indicated concentration for 20 minutes at 4° C. Blood was washed three times in PBS-BSA 1%-NaN3 0.01% and incubated with goat anti-human Alexa 488 IgG diluted 1:500 (Invitrogen) for 20 minutes at 4° C. Cells were then washed and incubated with CD14-PE (Caltag) or CD3-PE (Caltag) for 10 minutes at 4° C. and washed three times. Red blood cells were lysed with High-Yield lyse solution (Caltag) for 10 minutes at room temperature. Cells were analyzed immediately using Facscalibur (Becton-Dickinson). CXCR4 expression on monocytes was done on CD14 positive cells and CXCR4 expression on T cell was done on CD3 positives cells (FIG. 1). Results are expressed in Antigen Binding Capacity (ABC).

[2] = molecular target: T2, human CXCR4 (Homo sapiens, UniProt P61073); experiment: SDF-1-induced calcium release in CHO-CXCR4 cells; format: cell-based; parameters: expressed in transfected cells; details: Mab 133 nM, SDF-1 100 nM
T2 sequence (P61073 whole entry): as above
Excerpt: This functional assay was designed to monitor CXCR4 receptor signaling via stimulation of the phospholipase C pathway, inducing calcium liberation from intracellular stores from the endoplasmic reticulum.
CHO-K1 cells, stably and constitutively expressing human CXCR4 receptor were obtained upon transfection of naïve CHO-K1 cells (ATCC CCL-61) with a mammalian expression vector carrying the whole coding sequence of human CXCR4 receptor (RefSeq NM_003467). Cells were propagated in complete culture medium [DMEM-Ham's F12 supplemented with 5% fetal calf serum (FCS) and 500 μg/ml of geneticin]. Cells were plated in black 96MW plates at a density of 100,000 cells/well in appropriate culture medium. Cells were starved overnight before conducting the experiments. Cells are loaded with the fluorescent calcium dye (Fluo-4 No Wash, Invitrogen US) in loading buffer [HBSS 1×, HEPES 20 mM, Probenicid acid 25 mM] for 30 min. at 37° C. followed by 30 min. at 25° C. Stimulation by SDF-1 was performed by direct injection into each well. For antagonism experiments, 10 μl of Mab solution are added directly into the loading buffer at least 10 min. before SDF-1. Kinetic fluorescence measurements are performed on a multi-mode fluorescence microplate reader Mithras LB940 (Berthold) using the following settings: excitation at 485 nm, emission at 535 nm, excitation energy at 10000 arbitrary units. Fluorescence in each well is recorded during 0.1 second every second and for a time period of 20 sec. prior SDF-1 injection (basal signal). Then 20 μl of SDF-1 are injected and data recording follows for a time period of 2 min. Each experimental condition is performed in duplicate. Values for each well are first corrected by subtracting the basal fluorescence and the fluorescence emitted by a control well without cells. Relative data are expressed as a percentage of the maximal stimulation obtained by SDF-1 (100 nM).

[3] = molecular target: T2, human CXCR4; experiment: FACS binding to NIH3T3-hCXCR4 transfected cells; parameters: expressed in transfected cells; host or cells: NIH3T3 (mouse fibroblasts); details: for binding to human CXCR4-NIH3T3 transfected cell line (in words): FACS; for NIH3T3-CXCR4 (MFI): Mab 10 μg/ml, Mean Fluorescence Intensity by FACS
Method: In this experiment, the specific binding to human CXCR4 (hCXCR4) of anti-CXCR4 Mabs 515H7 and 301aE5 was examined by FACS analysis.
(§1) NIH3T3 and NIH3T3-hCXCR4 transfected cells were incubated with 10 μg/ml of monoclonal antibodies 515H7 and 301aE5. The cells were then washed with 1% BSA/PBS/0.01% NaN3. Next, Alexa-labeled secondary antibodies were added to the cells and were allowed to incubate at 4° C. for 20 min. The cells were then washed again two times. Following the second wash, FACS analysis was performed.
as §1, with “NIH3T3-hCXCR4” for “NIH3T3 and NIH3T3-hCXCR4”, “a dose range” for “10 μg/ml”, “antibody c515H7 from 0 μg/ml to 10 μg/ml.” for “antibodies 515H7 and 301aE5.”, “1%BSA/PBS/0.01%” for “1% BSA/PBS/0.01%”
NIH3T3, NIH3T3-hCXCR4 transfected were incubated with 0 to 10 μg/mL of humanized Mabs 515H7 (hz515H7 VH1 D76N VL2, hz515H7 VH1 D76N VL2.1, hz515H7 VH1 D76N VL2.2, hz515H7 VH1 D76N VL2.3) for 20 min at 4° C. in the dark in 100 μl Facs buffer. After 3 washing in Facs buffer, cells were incubated with the secondary antibody, a goat anti-human Alexa 488 (dilution 1/500), for 20 minutes at 4° C. in the dark. After 3 washing in Facs buffer, propidium iodide was added in each well and only viable cells were analyzed by Facs. At least 5000 viable cells were assessed to evaluate the mean value of fluorescence intensity for each condition.

B1: 515H7: murine anti-CXCR4 monoclonal antibody; light chain variable domain SEQ ID No. 7, heavy chain variable domain SEQ ID No. 8 (antibody, listed as Mus musculus, V domains shown)
VH: EVNLVESGGGLVQPGGSLRLSCATSGFTFTDNYMSWVRQPPGKALEWLGFIRNKANGYTTDYSASVRGRFTISRDNSQSILYLQMNALRAEDSATYYCARDVGSNYFDYWGQGTTLTVSS
VL: DIVMSQSPSSLAVSAGEKVTMSCKSSQSLFNSRTRKNYLAWYQQKPGQSPKLLIYWASARDSGVPARFTGSGSETYFTLTISRVQAEDLAVYYCMQSFNLRTFGGGTKLEIK
B1 was tested, and the “staining of T lymphocytes and monocytes” value [1] was “stained both T lymphocytes (FIG. 2A) and monocytes (FIG. 2B)”, the “inhibition of the SDF-1-induced calcium signal (in words)” value [2] was “strong inhibition” and the “binding to human CXCR4-NIH3T3 transfected cell line (in words)” value (shortened to “binding”) [3] was “bind specifically”. The “NIH3T3-CXCR4 (MFI)” value [3] was 2752.

B2: c515H7: chimeric antibody 515H7: murine variable domains fused to human Ckappa and IgG1/IgG2/IgG4 constant domains; isotype tested not stated (antibody, V domains shown)
VH: B1 VH
VL: B1 VL
With B2 the “inhibition of the SDF-1-induced calcium signal (in words)” value [2] was “strong inhibition” and the “binding” value [3] was “bound specifically”.

B3: 301aE5: murine anti-CXCR4 monoclonal antibody; light chain variable domain SEQ ID No. 34, heavy chain variable domain SEQ ID No. 35 (antibody, listed as Mus musculus, V domains shown)
VH: QVQLKESGPGLVAPSQSLSITCTVSGFSLTDYGVYWVRQPPGKGLEWLGMIWGDGTTDYNSALKSRLSISKDNSKSQVFLKMNTLQTDDTARYYCARGRQFGFDYWGQGTTLTVSS
VL: B1 VL with S22R, Y55F, A59I, D61E, A66D, E74G, Y76D, R83S, M95K, F98Y
With B3 the “staining of T lymphocytes and monocytes” value [1] was “stained both T lymphocytes (FIG. 2A) and monocytes (FIG. 2B)”, the “inhibition of the SDF-1-induced calcium signal (in words)” value [2] was “partial inhibition” and the “binding” value [3] was “bind specifically”. For the same molecule, the “NIH3T3-CXCR4 (MFI)” value [3] was 1367.
